# Test: Solubility in common solvents and co-solvents
# Conditions: some common organic solvents and co-solvents
substance,measurement,value
5′-deoxy-5-fluorouridine-poly(ε-caprolactone) [5′-DFUR-PCL],solubility,soluble

# — patent US20100203150A1, “Novel amphiphilic copolymers and fabrication method thereof” (priority 2009, published 2010)
